According to US20240207421A1, “NERVE TARGETING PEPTIDES AND METHODS OF USE” (ALUME BIOSCIENCES, INC., priority 2020, published 2024):

Target: Laminin 421/521
Assay: phage display, NGS count

B1: … (peptide)
peptide: CIGGPHRNC
Count: 29

B2: … (peptide)
peptide: CKSPAIKGC
Count: 29

B3: … (peptide)
peptide: CNSWKAAKC
Count: 29

B4: … (peptide)
peptide: DSLYRGMHQPRI
Count: 29

B5: … (peptide)
peptide: EDRMMTYRYTST
Count: 29

B6: … (peptide)
peptide: EVERILTPHVNN
Count: 29

B7: … (peptide)
peptide: FNSDSRSTHQED
Count: 29

B8: … (peptide)
peptide: HPAWADFFTMSS
Count: 29

B9: IDLSLRS (peptide)
peptide: IDLSLRS
Count: 29

B10: … (peptide)
peptide: IDQSGLQKSGMK
Count: 29

B11: … (peptide)
peptide: LGSSRSPSSFLG
Count: 29

B12: … (peptide)
peptide: NGHEVQSRAANR
Count: 29

B13: … (peptide)
peptide: QGWKDRLPIWRY
Count: 29

B14: … (peptide)
peptide: SHDVANGTSVRT
Count: 29

B15: … (peptide)
peptide: SPDRTNWGWQTN
Count: 29

B16: … (peptide)
peptide: SVESNSKLTMPR
Count: 29

B17: WPMMQTR (peptide)
peptide: WPMMQTR
Count: 29

B18: … (peptide)
peptide: CKSERGPEC
Count: 30

B19: … (peptide)
peptide: CQGWPRPMC
Count: 30

B20: … (peptide)
peptide: CSRAGLSAC
Count: 30

B21: … (peptide)
peptide: CTWKHRDNC
Count: 30

B22: … (peptide)
peptide: GLLDWGSLQGGN
Count: 30

B23: GPLLFRG (peptide)
peptide: GPLLFRG
Count: 30

B24: GSPEKRT (peptide)
peptide: GSPEKRT
Count: 30

B25: KASIAYD (peptide)
peptide: KASIAYD
Count: 30

B26: … (peptide)
peptide: LGYGQGTPHRSN
Count: 30

B27: … (peptide)
peptide: QGWEFQVPARHS
Count: 30

B28: … (peptide)
peptide: QTFGYSMFNVRT
Count: 30

B29: … (peptide)
peptide: RNLHYPLNHPFM
Count: 30

B30: TAPRWTQ (peptide)
peptide: TAPRWTQ
Count: 30

B31: VPSYILR (peptide)
peptide: VPSYILR
Count: 30

B32: WRSPLTT (peptide)
peptide: WRSPLTT
Count: 30

B33: … (peptide)
peptide: CQTSGHHQC
Count: 31

B34: … (peptide)
peptide: CSSQAKRSC
Count: 31

B35: … (peptide)
peptide: CTAWTRQEC
Count: 31

B36: … (peptide)
peptide: EYVKFSHSPRTY
Count: 31

B37: … (peptide)
peptide: GGWQSLWDKPEH
Count: 31

B38: … (peptide)
peptide: GPMLKNLSDAVT
Count: 31

B39: … (peptide)
peptide: NHDQGSLTRWRS
Count: 31

B40: … (peptide)
peptide: SLLSVVNTSSKS
Count: 31

B41: … (peptide)
peptide: VVPSWPSVHRPP
Count: 31

B42: … (peptide)
peptide: WGWNGANMSPRG
Count: 31

B43: … (peptide)
peptide: CHNADNNGC
Count: 32

B44: LPMLRHS (peptide)
peptide: LPMLRHS
Count: 32

B45: … (peptide)
peptide: NDTGRHASGISK
Count: 32

B46: … (peptide)
peptide: QALRTNYSPLNS
Count: 32

B47: … (peptide)
peptide: TLKAGTRANDGV
Count: 32

B48: … (peptide)
peptide: CGETTAGKC
Count: 33

B49: HSTYAPG (peptide)
peptide: HSTYAPG
Count: 33

B50: … (peptide)
peptide: QINWKQADKNAD
Count: 33

B51: … (peptide)
peptide: ALPWQSGVHGTK
Count: 34

B52: … (peptide)
peptide: TFGSGRSMPIQY
Count: 34

B53: … (peptide)
peptide: VYRNGGGLPLTA
Count: 34

B54: … (peptide)
peptide: ALKIGPETTIYM
Count: 35

B55: … (peptide)
peptide: DWTQVRVTNWFL
Count: 35

B56: … (peptide)
peptide: LGHQNGGRADMW
Count: 35
